assay: yeast display, Sf9 membrane polyspecificity reagent, FACS + sequencing; frameworks hold sequencing errors
Summary of the method: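 In a synthetic yeast display library (Saccharomyces cerevisiae BJ5465), nanobody expression was induced with galactose for 36–48 hours. FACS gates were set low and high (top ~1%) using anti-HA fluorescence for expression and streptavidin fluorescence for binding of the Sf9 membrane reagent. Each polyreactivity label is drawn from the gate of origin.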

Sequence	polyreactivity (PSR sort gate)
QVQLVESGGGLVQAGGSLRLSCAASGRTIIYNTMGWSRQAPGKEREFVAAINWSGGSTYYADSVKGCFTISRDNAKNTVYLQMNSLKPEDTAVYYCNAEAGYYRPLIYDYWGQGTQVTVSS	low polyreactivity
QVQLVESGGGLVQAGGSLRLSCAASGRTIIYNTMGWYRQAPGKEREFVAAINWSGGSTYYADSVKGRFTISRDNAKNTVYLQMNSLKPEDTAVYYCNAEAGYYRPLIYDYWGQGTQVTVSS	low polyreactivity
QVQLVESGGGLVQAGGSLRLSCAASGRTIKYYDMGWYRQAPGKERELVADISGRGGSTYYADSVKGRFTISRDNAKNTVYLQMNSLIPEDTAVYYCNAEWFTSSYAHYGMEHWGQGTQVTVSS	low polyreactivity
QVQLVESGGGLVQAGGSLRLSCAASGRTINRYAMGWYRQAPGKESELVASINKSGTSTYYADAVKGRFTISRDNAKNTVYLQMNCLKPEDTGVYYWKTRYFWCSTYDYWGQGTEVTVSS	high polyreactivity
QVQLVESGGGLVQAGGSLRLSCAASGRTIPTYVMGWYRQAPGKERELVASIRSGGRTKYADSVKGRFTISRDNAKNTVYLQMNSLKPEDTAVYYCAADYHGSPEYDYWGQGTQVTVSS	low polyreactivity
QVQLVESGGGLVQAGGSLRLSCAASGRTIQYYAMGWYRQAPGKERELVAAITRSGGRTYYADSVKGRFTISRDNAKNTVYLQMNSLKPEDTAVYYCARVSSSVHVDYDYWGQGTQVTVSS	high polyreactivity
QVQLVESGGGLVQAGGSLRLSCAASGRTIRSYAMGWYRQAPGKERELVAAITGSGGRTYYADSVKGRFTISRDNAKNTVYLQMNSLKPEDTAVYYCAARLRGSYDYWGQGTQVTVSS	high polyreactivity
QVQLVESGGGLVQAGGSLRLSCAASGRTIRYYAMGWYRQAPGKERELVAAITQNGGRTYYADSVKGRFTISRDNAKNTVYLQMNSLKPEDTAVYYCAKAFIQPGYKYDSWGQGTQVTVSS	high polyreactivity
QVQLVESGGGLVQAGGSLRLSCAASGRTIRYYAMGWYRQAPGKERELVAAITVTVTSTFYADSVKGRFTISRDDAKNTVYLQMNSLKPEDTAVYYCAKVDRQSPGQYYYWGQGSQVTVSS	low polyreactivity
QVQLVESGGGLVQAGGSLRLSCAASGRTISRNTMGWYRQAPGKERELVAGITYGGDRTYYADSVKGRFTISRDNAKNTVYLQMNSLKPEDTAVYYCAAPWYWKGLRDYWGQGTQVNVSS	low polyreactivity
QVQLVESGGGLVQAGGSLRLSCAASGRTISVYGMGWSRQAPGKERELVASITWRGGTTYYADSVKGRFTISRDNAKNSVYLQMNRLKPEDTAVYYCAAYWPYTTYRYRYDYWGQGTQVTVSS	high polyreactivity
QVQLVESGGGLVQAGGSLRLSCAASGRTISWYVMGWYRQAPGKERELVAAISWNGGRTYYADSVKGRFTISRDNAKNTVYLQMNSLKPEDTAVYYCAAKNYHGYPFDYWGQGTQVTVSS	high polyreactivity
QVQLVESGGGLVQAGGSLRLSCAASGRTISYAMGWYRQAPGKERELVAAIRYRGGSTYYADSVKGRFTISRDNAKNTVYLQMNSLKPEDTADYYCDAQDSYTPPILFRRGYLRYDYWGQGTQVTVSS	low polyreactivity
QVQLVESGGGLVQAGGSLRLSCAASGRTIVAYAMGWYRQAPGKERELVAAISWSTGSTYYADSVKGRFTISRDNAKNTVYLQMNSLKPEDTAVYYCAGLVWAPRDYWGQGTQVTVSS	low polyreactivity
QVQLVESGGGLVQAGGSLRLSCAASGRTIVLYVMGWYRQAPGKEREFVADINAGGGSTYYADSVKGRFTISRDNAKNTVYLQMNSLKPEDTSVYYCAATRDLGQLFRFGYWGQSTQVTVSS	low polyreactivity
QVQLVESGGGLVQAGGSLRLSCAASGRTIVYYAMGWYRQAPGKERDFVAAISRSGGRTSYADSVKGRFTISRDNAKNTVYLQMNSLKPEDTAVYYCAAEKRTQPTSREYYWGQGTQVTVSS	high polyreactivity
QVQLVESGGGLVQAGGSLRLSCAASGRTIWWYAMGWYRQAPGKERELVAAITWIGGSTYYADSVKGRFTISRDNAKNTVYLQMNSLKPEDTAVYYCATDKDDVSDLGKDYAYFEYDYWGQGTQVTVSS	low polyreactivity
QVQLVESGGGLVQAGGSLRLSCAASGRTIYQYAKGWYRPAPGKERELVAAISRGGSTNYADSLKGRFTISRDNAKNTVLLQLNSLKPEDTAVYDCASWYKCLSLKRLYERDYWGHGTQVTVSS	high polyreactivity
QVQLVESGGGLVQAGGSLRLSCAASGRTIYWNAMVWSRQAPGKERELVAAISNGGTTTYYADSVKGRFTISRDNAKNTVYLQMNSLKPEDTAVYYCAGDIRYFDYDYWGQGTQLTVSS	high polyreactivity
QVQLVESGGGLVQAGGSLRLSCAASGRTIYYNAIGRYIQAPVKEREFVATITCSGGSTYADSVKGRFTISRDNAKNTVYLQMNSLKPEDTAVYYCNADFSYTSEDQRALFTNVYYWGQGTQVTVSS	low polyreactivity
QVQLVESGGGLVQAGGSLRLSCAASGRTLARNAKGWYRQAPGKERELVASINGRTTRTYYADSVKGRFTISRDNAKNTVYLQMNSLKPEDTAVYYCAADPPGYVYGKRYYWGQGTQVTVSS	high polyreactivity
QVQLVESGGGLVQAGGSLRLSCAASGRTLASNAMGWYRQAPGKERELVAAINRGGSTYYADSVKGRFTISRDNAKNTVYLQMNSLKPEETAVYYCAVDRYRYPFDYWGQGTQVTVSS	low polyreactivity

Sequence	polyreactivity (PSR sort gate)
QVQLVESGGGLVQAGGSLRLSCAASGRTLCVNAMGWYRQAPGKERELVAAISTRGTTTNYADSVKGRFTISRDIAKNTVYLQMNSLKPEDSAVYYCATRTYRTYPRYDYWGQGTQVTVSS	low polyreactivity
QVQLVESGGGLVQAGGSLRLSCAASGRTLDIYTMGWYRQAPGKERELVAAISWSGGSTYYADSVKGRFTISRDNAKNTVYLQMNSLKPEDTAVYYCNRVPISYAGQLEHSLYDFWGQGTQVTVSS	low polyreactivity
QVQLVESGGGLVQAGGSLRLSCAASGRTLDVYAMGWYRQAPGKERELVADINWSGGRTYYADSVKGRFTISRDNAKNTVYLQMNSLIPEDTAVFYCAADLSWRQYYREYDYWGQGTQVTVSS	high polyreactivity
QVQLVESGGGLVQAGGSLRLSCAASGRTLFGYAMGWYRQAPGKERELVAAITYGATSTYADSVKGRFTISRDNAKNTVYLQMNSLKPEDTAVYYCNAYTPTDGFDYWGQGTQVTVSS	low polyreactivity
QVQLVESGGGLVQAGGSLRLSCAASGRTLFRYAMGWYRQAPGKERELVAAISRSGGTTYYADSVKGRFTISRDNAKNTVYLQMNSLKPEDTAVYYCAARFVLRRDYGYWGQGTQVTVSS	high polyreactivity
QVQLVESGGGLVQAGGSLRLSCAASGRTLGDYDMGSYRQAPGKERELVAAINWSGGDTYYADSVKGRFTISRDNANNTVYLQMNSLKPEDSAVYYCNADYVYTRYDYWGQGTQVTVSS	high polyreactivity
QVQLVESGGGLVQAGGSLRLSCAASGRTLGGYAMGWYRQAPGKERELVASITSTSSTYADSVKGRFTISRDNAKNTVYLQMNSLKPEDTAVYYCAADYFLTSYGWRIHYTYYYWGQGTQVTVSS	low polyreactivity
QVQLVESGGGLVQAGGSLRLSCAASGRTLGGYAMGWYRQAPGKERELVAVITWNGGSTYADSVKGRFTISRDNAKNTVYLQMNSLKPEDTAVYYCAADRFNKPYYYWGQGTQVTVSS	high polyreactivity
QVQLVESGGGLVQAGGSLRLSCAASGRTLGKYAMGWYRQAPGKERELVAAIRWTGGNTYYADSVKGRFTISRDNAKNTVYLQMNSLKPEDPAGYYCNAVSFGRARHGGPVYGYDYWGQGTQVTVSS	high polyreactivity
QVQLVESGGGLVQAGGSLRLSCAASGRTLGRNAMGWYRQAPGKERELVASISSGGSTNYADSVKGRFTISRDNAKNTVYLQMNSLKPEDTAVYYCAAGYFRDYWGQGTQVTVSS	high polyreactivity
QVQLVESGGGLVQAGGSLRLSCAASGRTLGTYAMGWYRQAPGKERELVAAISVSSGSTYYADSVKGRFTISRDTAKNTVYLQMNSLKPEDTAVYYCAALPVYHYDSWGQGTQVTVSS	high polyreactivity
QVQLVESGGGLVQAGGSLRLSCAASGRTLGYNAMGWYSQAPGKEMDLVAAISYGGGGTYYADSVKGRCTISRDNAKNTVYLQMNSLKPEDTAVYYCAADYWYGAGLPHGTEFDYWGQGTQVTVSS	low polyreactivity
QVQLVESGGGLVQAGGSLRLSCAASGRTLGYYAMGWYRQAPGKERELVAAISGSGGITYYADSVKGRFTISRDNAKNTVYLQMNSLKPEDTAVYYCNVDPTAKWFNYDSWGQGTQVTVSS	low polyreactivity
QVQLVESGGGLVQAGGSLRLSCAASGRTLIVNTMGWYRQAPGKEREFVAAIFSGASTYYADSVKGRFTISRDNAMNTDYLQINSVKPEDTAVYYCAAAVFRWSRYDYWGQGTQVTVSS	low polyreactivity
QVQLVESGGGLVQAGGSLRLSCAASGRTLKWYAMGWYRQAPGKERELVAAISWSGGSTYYADSVKGRFTISRDNAKNTVYLQMNSLKPEDTAVYYCAVAVTSYSSKKLYYWGQGTQVTVSS	low polyreactivity
QVQLVESGGGLVQAGGSLRLSCAASGRTLLLNTMGWYRQAPGKERELVAAISWRDGSTYYADSVKGRFTISRDNAKNTVYLQMNSLKPEDTAVYYCNARLSGRSPYDLRFDYWGQGTQVTVSS	low polyreactivity
QVQLVESGGGLVQAGGSLRLSCAASGRTLLPNAMGWYRQAPGKERELVADISTSDGSTRYADSVKGRFTISRDNAKNTVYLQMNSLKPEDTAVYYCAAGSEYYSSGGVRFSFYYWGQGTQVTVSS	low polyreactivity
QVQLVESGGGLVQAGGSLRLSCAASGRTLLYNAMGWYRQAPGKERELVAAISYRGGSTYYADSVKGRFTISRDNAKNTVYLQMNSLKPEDTAVYYCAKVTYPYIRWYYPGYDYWGQGTQVTVSS	high polyreactivity
QVQLVESGGGLVQAGGSLRLSCAASGRTLNAYAMGWYRQAPGKERELVAAITGDDGSTYYADSVKGRFTISRDNAKNTVYLQMNTLKPEDTAVYYCAAVTFSYDGYDYWGQGTQVTVSS	low polyreactivity
QVQLVESGGGLVQAGGSLRLSCAASGRTLNDYTMGWYRQAPGKERELVAAISSSGVRTYYADSVKGRFTISRDNAKNTVYLQMNSLKPEDTAVYYAKRAGYDRRWNYDYWGQGTQVTVSS	high polyreactivity
QVQLVESGGGLVQAGGSLRLSCAASGRTLNYNAMGWYRQAPGKERELVAAITSSGRTYYADSVKGRFTISRDNAKNTVFLQMNSLKPEDTAVYYCAASPYGRSILVRYGYWGQGTQVTVSS	high polyreactivity
